Results published in patent US7629132B2, “Goodpasture antigen binding protein” (priority 1999, dated 2009).

Tests used:
GPBP = target: T1, GPBP (Homo sapiens, UniProt Q9Y5P4); assay: In vitro GPBP autophosphorylation in the presence of GPΔIII-derived peptide; type: biochemical; settings: about 200 ng rGPBP, 150 μM ATP, 5 nmol peptide
T1 construct: made in house; host or cells: Pichia pastoris GS115
T1 sequence (Q9Y5P4 1-624): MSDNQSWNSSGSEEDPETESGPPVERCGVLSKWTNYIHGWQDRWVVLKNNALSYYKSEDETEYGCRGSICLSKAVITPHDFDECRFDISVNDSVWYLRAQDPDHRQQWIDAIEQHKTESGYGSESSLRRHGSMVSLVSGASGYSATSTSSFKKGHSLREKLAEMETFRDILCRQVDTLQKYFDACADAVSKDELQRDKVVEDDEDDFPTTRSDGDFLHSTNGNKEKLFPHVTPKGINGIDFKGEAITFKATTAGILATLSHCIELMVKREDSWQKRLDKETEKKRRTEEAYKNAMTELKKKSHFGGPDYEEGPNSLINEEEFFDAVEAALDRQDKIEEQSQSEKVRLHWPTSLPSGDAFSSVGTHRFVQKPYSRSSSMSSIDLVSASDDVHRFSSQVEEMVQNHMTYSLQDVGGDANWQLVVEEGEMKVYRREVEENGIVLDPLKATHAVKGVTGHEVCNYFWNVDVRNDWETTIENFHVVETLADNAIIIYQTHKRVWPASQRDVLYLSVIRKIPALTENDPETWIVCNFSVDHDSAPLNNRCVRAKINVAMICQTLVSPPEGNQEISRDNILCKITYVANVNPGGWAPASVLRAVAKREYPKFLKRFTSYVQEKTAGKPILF
Description: FIG. 20. Regulation of the GPBP by the C terminal region of GPΔIII. About 200 ng of rGPBP were in vitro phosphorylated with 150 μM ATP in the absence (lane 1) or in the presence of 5 nmol of GPΔIII-derived peptide synthesized either using Boc-(lane 2) or Fmoc-(lane 3) chemistry. The reaction mixtures were subjected to SDS-PAGE, transferred to PVDF and autoradiographed to asses autophosphorylation, and subsequently blotted with anti-FLAG monoclonal antibodies (Sigma) to determine the amount of recombinant material present (Western).
In vitro phosphorylation assays-About 200 ng of rGPBP were incubated overnight at 30° C. in 25 mM β-glycerolphosphate (pH 7.0), 0.5 mM EDTA, 0.5 mM EGTA, 8 mM MgCl2, 5 mM MnCl2, 1 mM DTT and 0.132 μM γ-^32P-ATP, in the presence or absence of 0.5-1 μg of protein substrates or 10 nmoles of synthetic peptides, in a total volume of 50 μl.
(§1) Phosphorylation studies. Phosphorylation studies were essentially done as described above (see also 3 and 12). In some experiments, the substrates were in-blot renatured and then, phosphorylated for 30 min at room temperature by overlaying 100 μl of phosphorylation buffer containing 0.5 μg of rGPBP. Digestion with V8 endopeptidase and immunoprecipitation were performed as described in (3).

PKA = PKA (Homo sapiens, UniProt P17612); assay: PKA phosphorylation of native GP antigen (α3(IV)NC1 domain or hexamer) in the presence of C-terminal peptides; type: biochemical; settings: 0.1 μM ATP, 10 nmol peptide, purified α3(IV)NC1 domain or hexamer
Description: FIG. 16. Phosphorylation of GP alternative splicing products by PKA. In left panel, equimolecular amounts of rGP (lanes 1), rGPΔV (lanes 2), rGPΔIII (lanes 3) or rGPΔIII/IV/V (lanes 4), equivalent to 500 ng of the GP were phosphorylated at the indicated ATP concentrations. One-fifth of the total phosphorylation reaction mixture was separated by gel electrophoresis and transferred to PVDF, autoradiographed (shown) and the proteins blotted with M3/1, a specific monoclonal antibody recognizing all four species (shown) or using antibodies specific for each individual C-terminal region (not shown). […] Right panel: purified α3(IV)NC1 domain or hexamer was phosphorylated with PKA and 0.1 μM ATP in the absence (lanes 1) or in the presence of 10 nmol of peptides representing the C-terminal region of either GPΔIII (lanes 2) or GPΔIII/IV/V (lanes 3). Where indicated the phosphorylation mixtures of purified α3(IV)NC1 domain were V8 digested and immunoprecipitated with antibodies specific for the N terminus of the human α3(IV)NC1 domain (3). Bars and numbers indicate the position and sizes (kDa) of the molecular weight markers.
as §1

rGPBP = target: T2, rGPBP (Homo sapiens, UniProt Q9Y5P4); assay: In vitro phosphorylation of GP antigen-derived peptides by rGPBP; type: biochemical; settings: about 200 ng yeast rGPBP, 10 nmoles peptide, γ-32P-ATP
T2 construct: made in house; host or cells: Pichia pastoris GS115
T2 sequence (Q9Y5P4 1-624): T1 sequence (Q9Y5P4 1-624)
Description: FIG. 5. Recombinant GPBP contains a serine/threonine kinase that specifically phosphorylates the N-terminal region of the human GP antigen. To assess phosphorylation, approximately 200 ng of yeast rGPBP was incubated with [γ]^32P-ATP in the absence (A and B) or presence of GP antigen-derived material (C). In (A), the mixture was subjected to reducing SDS-PAGE (10% gel) and autoradiographed. In (B), the mixture was subjected to ^32P-phosphoamino acid analysis by two-dimensional thin-layer chromatography. The dotted circles indicate the position of ninhydrin stained phosphoamino acids. In (C), the phosphorylation mixtures of the indicated GP-derived material were analyzed by SDS-PAGE (15% gel) and autoradiography (GPpep1 and GPpep1Ala^9) or immunoprecipitated with Mab 17, a monoclonal antibody that specifically recognize GP antigen from human and bovine origin, and analyzed by SDS-PAGE (12.5%) and autoradiography (rGP, GP). The relative positions of rGPBP (A), rGP antigen and the native human and bovine GP antigens (C) are indicated by arrows. The numbers and bars refer to molecular weight markers as in previous Figures. […]

[1] = Loss of PKA-inducing activity of the peptide on storage; type: physicochemical; settings: long storage at low temperatures

Sequence: QRAHGQDLDALFVKVLRSP [Fmoc-based peptide]
- effect on GPBP autophosphorylation (GPBP): inhibited GPBP autophosphorylation
- induction of GP antigen phosphorylation by PKA (PKA; listed as Fmoc-based peptides): not

Sequence: QRAHGQDLDALFVKVLRSP [GPΔIII derived peptide, synthetic peptide representing the C-terminal region of GPΔIII, chemistry not specified at the place]
- induction of GP antigen phosphorylation by PKA (PKA; listed as SEQ ID NO: 43): induced the phosphorylation of a single polypeptide

Sequence: KGKRGDAGSPATWTTRGFVFT [GPpep1Ala^9, mutant Ser9 to Ala9 of GPpep1, residues 3-23 of the human GP antigen]
- 32P incorporation by rGPBP, compared with GPpep1 (rGPBP): lower ^32P incorporation

Sequence: QRAHGQDLESLFHQL [GPΔIII/IV/V derived peptide, synthetic peptide representing the C-terminal region of GPΔIII/IV/V]
- induction of GP antigen phosphorylation by PKA (PKA): induced the phosphorylation of a single polypeptide

Sequence: QRAHGQDLDALFVKVLRSP [Boc-based peptide]
- effect on GPBP autophosphorylation (GPBP; listed as Boc-based synthetic peptides): positively influenced GPBP autophosphorylation
- stability of biological activity (ability to induce PKA) on storage [1]: loses its ability to induce PKA upon long storage at low temperatures
